Measurements taken from patent US20230085439A1 (UNIVERSITY OF GEORGIA RESEARCH FOUNDATION, published 2023).
Read-outs that look alike come from different tables or passages of the source.

What was measured:
hMPV A1 F [1] = biological target: T1, hMPV A1 F (human metapneumovirus)
hMPV A2 F [2] = biological target: T2, hMPV A2 F (human metapneumovirus)
hMPV B1 F [3] = biological target: T3, hMPV B1 F (human metapneumovirus)
hMPV B2 F [4] = biological target: T4, hMPV B2 F (human metapneumovirus)
hMPV B2 F-GCN4 dFP 6R = hMPV B2 F-GCN4 dFP 6R (human metapneumovirus)
[5] = biological target: hMPV F protein of hMPV A2 strain CAN/97-83 (human metapneumovirus, UniProt Q6WB98 19-539); assay: cell-based or functional assay
[6] = biological target: hMPV F protein of hMPV B2 strain TN/93-32 (human metapneumovirus); assay: cell-based or functional assay
[7] = biological target: T5, monomeric hMPV B2 F protein treated with trypsin (human metapneumovirus); assay: ELISA on trypsin-treated monomeric and trimeric hMPV B2 F
[8] = biological target: T6, trimeric hMPV B2 F protein treated with trypsin (human metapneumovirus); assay: ELISA on coated antigen, mAb titrated; panel hMPV B2 F trimer (trypsin), key 2
[9] = biological target: T5, monomeric hMPV B2 F protein treated …; assay: ELISA on coated antigen, mAb titrated; panel hMPV B2 F monomer (trypsin), key 2
hMPV 130-BV = biological target: T7, hMPV 130-BV (human metapneumovirus); assay: ELISA on coated antigen, mAb titrated; EC50 list entry 5 of 7 (marker of hMPV 130BV)
T7 construct: also called hMPV 130-BV F; hMPV F 130-BV

hMPV A1 F [10] = biological target: T1, hMPV A1 F; assay: ELISA on coated antigen, mAb titrated; EC50 box, key 1
hMPV A2 F [11] = biological target: T2, hMPV A2 F; assay: ELISA on coated antigen, mAb titrated; EC50 box, key 2
hMPV B1 F [12] = biological target: T3, hMPV B1 F; assay: ELISA on coated antigen, mAb titrated; EC50 box, key 3
hMPV B2 F [13] = biological target: T4, hMPV B2 F; assay: ELISA on coated antigen, mAb titrated; EC50 box, key 4
[14] = biological target: T6, trimeric hMPV B2 F protein treated with …; assay: ELISA on coated antigen, mAb titrated; panel hMPV B2 F trimer (trypsin), key 1
[15] = biological target: T5, monomeric hMPV B2 F protein treated …; assay: ELISA on coated antigen, mAb titrated; panel hMPV B2 F monomer (trypsin), key 1

B1: MPV458 (antibody, V domains shown)
VH: QGKLVESGGGVIQPGRSLRLSCAASGFDFSRYGLHWVRQAPGKGLEWVAVIVYAGSNKYYADSVKGRFTISKDNSKNTMHLQMSDLRTEDTAVYYCARDQAFDLWGQGTMVTVSS
VL: DIQMTQSPASLSASVGDRVTITCQASQGISRSVNWYQQKPGKAPKLLIFDASHLERGVPSRFSGSGYGTDFTFTISSLQPEDIATYYCQQYDNLRISFGQGTRLEIK
notes: also called mAb MPV458; MPV458 IgG
B1 gave an EC50 (hMPV B2 F GCN4) of 0.2 µg/mL, an EC50 (hMPV A1 F [1]) of 0.75 µg/mL and an EC50 (hMPV A2 F [2]) of 0.39 µg/mL. For the same binder, the EC50 (hMPV B1 F [3]) was 0.39 µg/mL, the EC50 (hMPV B2 F [4]) was 0.6 µg/mL and the EC50 (hMPV B2 F-GCN4 dFP 6R) was 0.37 µg/mL. The “50% inhibitory concentration (IC50), plaque neutralization” value [5] was 0.033 µg/mL, the “50% inhibitory concentration (IC50), plaque neutralization” value [6] was 0.49 µg/mL and the “fold EC50, monomeric against trimeric hMPV B2 F” value [7] was roughly 4 fold lower. For the same binder, the EC50 [8] was 0.9 µg/mL, the EC50 [9] was 0.25 µg/mL and the EC50 (hMPV 130-BV) was 0.24 µg/mL.

B2: MPV314 (antibody, V domains shown)
VH: QVQLVQSGGGVVQPGRSLRLSCAASGFSFSDYGMDWVRQAPGKGLEWVAVISYDGSNQYYADSVKGRFTVSRDNSKNTVYLQMNSLRAEDTAVYFCAKDESRRYYYSSGIHSHWGQGTLVTVSS
VL: DIVMTQSPATLSVSPGERATLSCRASQSVSRNLAWYQQKPGQAPRLLIFGASTRATGIPARFSGSASGTEFTLTISSLQSEDFAVYYCHQYNYWPPGTFGQGTRLEIK
notes: also called mAb MPV314
B2 gave an EC50 (hMPV A1 F [10]) of 0.096 µg/mL, an EC50 (hMPV A2 F [11]) of 0.102 µg/mL and an EC50 (hMPV B1 F [12]) of 0.039 µg/mL.

B3: MPV201 (antibody, V domains shown)
VH: QVQLVQSGGGGVQPGRSLRLSCAASGFIFSDYGMHWVRQAPGKGLEWVAVISYDGSNQYYADSVKGRFTISRDNSRNTLYLQMNSLRVEDTAVYYCAKDQGRRYYYSSGYLDYWGQGTLVTVSS
VL: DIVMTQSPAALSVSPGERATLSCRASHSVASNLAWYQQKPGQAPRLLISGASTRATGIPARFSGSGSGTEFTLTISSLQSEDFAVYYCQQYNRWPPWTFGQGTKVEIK
notes: also called mAb MPV201
B3 was tested, and the EC50 (hMPV A1 F [10]) was 0.104 µg/mL, the EC50 (hMPV A2 F [11]) was 0.14 µg/mL and the EC50 (hMPV B1 F [12]) was 0.042 µg/mL. It also gave an EC50 (hMPV B2 F [13]) of 0.089 µg/mL.

B4: MPV364 (antibody, V domains shown)
VH: QVQLVQSGAEVKKPGASVKVSCKASGYTFTHDSIHWVRQAPGQRLEWMGWINVGNGDTKSSQKFQDRLTITRDTSANTAYMEVRSLKYEDTAMYFCARVDQYCIGGVCYGGKNWFDPWGQGTLVTVSS
VL: SYELNQPPSVSVAPGQTAMITCGGYYVGVKSLHWYQQKAGQAPVLVVHDDSDRPSGIPERFSGSKSGDTATLIISRVEAGDEADYYCQVWDRDSDHPYVFGTGTTVTVL
notes: also called mAb MPV364; hMPV364
In the case of B4, the “IC50, plaque neutralization” value [5] is reported as 0.008 µg/mL, the “IC50, plaque neutralization” value [6] is reported as 0.018 µg/mL and the EC50 (hMPV A1 F [10]) is reported as 0.25 µg/mL. The EC50 (hMPV A2 F [11]) was 0.44 µg/mL and the EC50 (hMPV B1 F [12]) was 0.2 µg/mL.

B5: MPE8 (antibody, V domains shown)
VH: EVQLVESGGGLVKPGGSLRLSCAASGFTFSSYSMNWVRQAPGKGLEWVSSISASSSYSDYADSAKGRFTISRDNAKTSLFLQMNSLRAEDTAIYFCARARATGYSSITPYFDIWGQGTLVTVSS
VL: QSVVTQPPSVSGAPGQRVTISCTGSSSNIGAGYDVHWYQQLPGTAPKLLIYDNNNRPSGVPDRFSASKSGTSASLAITGLQAEDEADYYCQSYDRSLSGVFGTGTKVTVL
notes: also called mAb MPE8; MPE8 antibody
In the case of B5, the EC50 (hMPV B2 F GCN4) is reported as 4.7 µg/mL, the EC50 (hMPV A1 F [1]) is reported as 14 µg/mL and the EC50 (hMPV A2 F [2]) is reported as 4.3 µg/mL. It also gave an EC50 (hMPV B1 F [3]) of 3.1 µg/mL, an EC50 (hMPV B2 F [4]) of 36 µg/mL and an EC50 (hMPV B2 F-GCN4 dFP 6R) of 5.9 µg/mL. For the same binder, the EC50 (hMPV 130-BV) was 1.8 µg/mL.

B6: MPV196 (antibody, V domains shown)
VH: QVQLQQWGAGLLKPSETLSLTCAVYGGSFSGYSWTWIRQPPGKGLEWIGEINHSGSTNYNPSLKSRVTISIDTSRNQFSLKLISVTAADTAVYYCARGVRGGYNLWHFDVWGQGTLVTVSS
VL: SYELSQSPSVSVSPGQTARITCSGDKLGNKYASWYQQKPGQSPVLVIYQDDKRPSGIPERFSGSNSGNTATLTIGGTQAMDEADYSCQAWDGRTAVVFGGGTKLTVL
notes: also called mAb MPV196
With B6 the EC50 (hMPV B2 F GCN4) was 0.18 µg/mL, the EC50 (hMPV A1 F [1]) was 0.27 µg/mL and the EC50 (hMPV A2 F [2]) was 0.17 µg/mL. The EC50 (hMPV B1 F [3]) was 0.12 µg/mL, the EC50 (hMPV B2 F [4]) was 0.44 µg/mL and the EC50 (hMPV B2 F-GCN4 dFP 6R) was 0.15 µg/mL. The EC50 (hMPV A1 F [10]) was 0.15 µg/mL, the EC50 (hMPV A2 F [11]) was 0.204 µg/mL and the EC50 (hMPV B1 F [12]) was 0.077 µg/mL. It also gave an EC50 (hMPV B2 F [13]) of 0.136 µg/mL, an EC50 [14] of 0.17 µg/mL and an EC50 [15] of 0.091 µg/mL. For the same binder, the EC50 (hMPV 130-BV) was 0.14 µg/mL.
